Columns and labels:
Test in all cases: ΔPlySs1 OD600 lysis, 1 hr
Assay type in all cases: cell-based
[1] = tested on: S. suis 8076 (ST9)
Procedure: Given the above experiments, the following optimal buffering conditions were employed for all further in vitro experiments with ΔPlySs1: 20 mM phosphate buffer, pH=7.8, 2 mM EDTA. A range of lysin concentrations, from 6.5-130 μg/ml, were introduced to live S. suis cells in this buffer. Three strains were considered particularly relevant: 7711, the serotype 7 strain that encodes PlySs1; 5735, the serotype 2 reference strain; and 7997, a highly virulent serotype 9 strain. In terms of bacterial viability, only the highest PlySs1-concentration (130 μg/ml) led to a >90% decrease in CFUs for 7711, S735, and 7997 after 1 hr treatment (TABLE 2). The lysin was also tested against actively-dividing cells in broth culture (strain 7711) (FIG. 20).
ΔPlySs1 was further tested against a panel of 19 other S. suis strains of diverse serotypes, as well as other species of Gram-positive bacteria. The same lysin concentrations were used as above. For each dosage, the observed lysis values after 1 hr are listed in TABLE 3 and TABLE 4, and the information is summarized graphically in FIG. 21.

[2] = tested on: S. agalactiae type II
[3] = tested on: S. equi 700400
[4] = tested on: S. uberis 27598
[5] = tested on: S. gordonii 10558
[6] = tested on: E. faecium EFSK2
[7] = tested on: S. aureus RN4220
[8] = tested on: B. thuringiensis HD73
[9] = tested on: S. epidermidis HN1292
[10] = tested on: S. agalactiae 090R
[11] = tested on: S. simulans TNK3

B1: ΔPlySs1: truncated PlySs1 lysin with N-terminal enzymatic and central binding domains, N-terminal 254 amino acids, SEQ ID NO:2 (protein, listed as Streptococcus suis)
chain: MTINLETSIRWMSDRVGKVSYSMDYRNGPNSYDCSSAVYYALMAGGAISAGWAVNTEYMHDWLIRNGYVLVAENKPFNAQRHDVCILGKRGYSSGAGGHVVIFVDNVNVIHCNYARNGISIDNYNQVHRGMYYYLYRPANQPSISNKSLDQLVKETLAGVHGNGDTRKASLGSQYEAVMAVINGKASASEKSDEELAREVLAGKHGAGEDRKRSLGPRYEPVQAKVNELLKAKEKPSETAKNEPQTVQFKEDGDL
B1 was tested, and the “1-hour treated/untreated OD600-ratio” value ([1]; 6.5 μg/ml) was 0.52, the “1-hour treated/untreated OD600-ratio” value ([1]; 13 μg/ml) was 0.40 and the “1-hour treated/untreated OD600-ratio” value ([1]; 30 μg/ml) was 0.21. The “1-hour treated/untreated OD600-ratio” value ([1]; 65 μg/ml) was 0.14, the “1-hour treated/untreated OD600-ratio” value ([1]; 130 μg/ml) was 0.04 and the “1-hour treated/untreated OD600-ratio” value ([2]; 6.5 μg/ml) was 0.61. For the same molecule, the “1-hour treated/untreated OD600-ratio” value ([2]; 13 μg/ml) was 0.21, the “1-hour treated/untreated OD600-ratio” value ([2]; 30 μg/ml) was 0.11 and the “1-hour treated/untreated OD600-ratio” value ([2]; 65 μg/ml) was 0.08. For the same molecule, the “1-hour treated/untreated OD600-ratio” value ([2]; 130 μg/ml) was 0.04, the “1-hour treated/untreated OD600-ratio” value ([3]; 6.5 μg/ml) was 0.48 and the “1-hour treated/untreated OD600-ratio” value ([3]; 13 μg/ml) was 0.25. For the same molecule, the “1-hour treated/untreated OD600-ratio” value ([3]; 30 μg/ml) was 0.15, the “1-hour treated/untreated OD600-ratio” value ([3]; 65 μg/ml) was 0.07 and the “1-hour treated/untreated OD600-ratio” value ([3]; 130 μg/ml) was 0.09. For the same molecule, the “1-hour treated/untreated OD600-ratio” value ([4]; 6.5 μg/ml) was 0.42, the “1-hour treated/untreated OD600-ratio” value ([4]; 13 μg/ml) was 0.23 and the “1-hour treated/untreated OD600-ratio” value ([4]; 30 μg/ml) was 0.16. The “1-hour treated/untreated OD600-ratio” value ([4]; 65 μg/ml) was 0.14, the “1-hour treated/untreated OD600-ratio” value ([4]; 130 μg/ml) was 0.12 and the “1-hour treated/untreated OD600-ratio” value ([5]; 6.5 μg/ml) was 0.76. The “1-hour treated/untreated OD600-ratio” value ([5]; 13 μg/ml) was 0.32, the “1-hour treated/untreated OD600-ratio” value ([5]; 30 μg/ml) was 0.19 and the “1-hour treated/untreated OD600-ratio” value ([5]; 65 μg/ml) was 0.09. For the same molecule, the “1-hour treated/untreated OD600-ratio” value ([5]; 130 μg/ml) was 0.06, the “1-hour treated/untreated OD600-ratio” value ([6]; 6.5 μg/ml) was 0.85 and the “1-hour treated/untreated OD600-ratio” value ([6]; 13 μg/ml) was 0.67. The “1-hour treated/untreated OD600-ratio” value ([6]; 30 μg/ml) was 0.52, the “1-hour treated/untreated OD600-ratio” value ([6]; 65 μg/ml) was 0.32 and the “1-hour treated/untreated OD600-ratio” value ([6]; 130 μg/ml) was 0.13. The “1-hour treated/untreated OD600-ratio” value ([7]; 6.5 μg/ml) was 0.89, the “1-hour treated/untreated OD600-ratio” value ([7]; 13 μg/ml) was 0.78 and the “1-hour treated/untreated OD600-ratio” value ([7]; 30 μg/ml) was 0.55. The “1-hour treated/untreated OD600-ratio” value ([7]; 65 μg/ml) was 0.31, the “1-hour treated/untreated OD600-ratio” value ([7]; 130 μg/ml) was 0.10 and the “1-hour treated/untreated OD600-ratio” value ([8]; 6.5 μg/ml) was 0.99. For the same molecule, the “1-hour treated/untreated OD600-ratio” value ([8]; 13 μg/ml) was 0.98, the “1-hour treated/untreated OD600-ratio” value ([8]; 30 μg/ml) was 0.93 and the “1-hour treated/untreated OD600-ratio” value ([8]; 65 μg/ml) was 0.86. For the same molecule, the “1-hour treated/untreated OD600-ratio” value ([8]; 130 μg/ml) was 0.60, the “1-hour treated/untreated OD600-ratio” value ([9]; 6.5 μg/ml) was 1.04 and the “1-hour treated/untreated OD600-ratio” value ([9]; 13 μg/ml) was 1.00. The “1-hour treated/untreated OD600-ratio” value ([9]; 30 μg/ml) was 0.96, the “1-hour treated/untreated OD600-ratio” value ([9]; 65 μg/ml) was 0.94 and the “1-hour treated/untreated OD600-ratio” value ([9]; 130 μg/ml) was 0.87. The “1-hour treated/untreated OD600-ratio” value ([10]; 6.5 μg/ml) was 0.97, the “1-hour treated/untreated OD600-ratio” value ([10]; 13 μg/ml) was 0.99 and the “1-hour treated/untreated OD600-ratio” value ([10]; 30 μg/ml) was 0.97. The “1-hour treated/untreated OD600-ratio” value ([10]; 65 μg/ml) was 0.98, the “1-hour treated/untreated OD600-ratio” value ([10]; 130 μg/ml) was 0.93 and the “1-hour treated/untreated OD600-ratio” value ([11]; 6.5 μg/ml) was 0.96. The “1-hour treated/untreated OD600-ratio” value ([11]; 13 μg/ml) was 1.00, the “1-hour treated/untreated OD600-ratio” value ([11]; 30 μg/ml) was 1.00 and the “1-hour treated/untreated OD600-ratio” value ([11]; 65 μg/ml) was 1.00. The “1-hour treated/untreated OD600-ratio” value ([11]; 130 μg/ml) was 0.96.

Source: patent US20140179594A1, “STREPTOCOCCUS BACTERIOPHAGE LYSINS FOR TREATMENT OF GRAM POSITIVE BACTERIA IN COMPANION ANIMALS AND LIVESTOCK” (priority 2011, published 2014)
